Assay results as given in article PMC3684423 (Structure (London, England : 1993), 2012).
Where no end group is shown, it is not given here. [ ]: non-standard residue; d: D form. pT = C[C@@H](OP(=O)(O)O)[C@H](N)C(=O)O

What was measured:
[1] = biological target: T1, N-terminal Smac/DIABLO(1–15) peptide; assay: ITC
T1 sequence (Q9NR28 22-36, species assumed, looked up): LCVPVVANFKKRCFS

Survivin 1-142 = Survivin 1-142 (UniProt O15392); assay: peptide-bead pull-down, Coomassie stain
Survivin H80A mutant = Survivin H80A mutant (human, UniProt O15392 1-142, H80A); assay: ITC
Sequence of Survivin H80A mutant (O15392 whole entry H80A): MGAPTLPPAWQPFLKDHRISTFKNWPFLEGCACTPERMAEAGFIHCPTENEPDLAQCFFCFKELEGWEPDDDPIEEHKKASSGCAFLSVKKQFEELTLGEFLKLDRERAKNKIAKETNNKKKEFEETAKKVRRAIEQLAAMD

Survivin E63A mutant = Survivin E63A mutant (human, UniProt O15392 1-142, E63A); assay: ITC
Sequence of Survivin E63A mutant (O15392 whole entry E63A): as the sequence (O15392 whole entry H80A) above, with E63A, A80H counted along it

Survivin L64A mutant = Survivin L64A mutant (human, UniProt O15392 1-142, L64A); assay: ITC
Sequence of Survivin L64A mutant (O15392 whole entry L64A): as the sequence (O15392 whole entry H80A) above, with L64A, A80H counted along it

Survivin W67A mutant = Survivin W67A mutant (human, UniProt O15392 1-142, W67A); assay: ITC
Sequence of Survivin W67A mutant (O15392 whole entry W67A): as the sequence (O15392 whole entry H80A) above, with W67A, A80H counted along it

Sequence of human Survivin (wild type) (O15392 whole entry): as the sequence (O15392 whole entry H80A) above, with A80H counted along it

Molecule “Survivin(K62Y/H80W) double mutant (from UniProt O15392 1-142) (natural protein)” has a Kd [1] of 19.8 µM and a dH [1] of -4.44 kcal/mol.

“histone H3 (from UniProt P68431) H3T3ph peptide beads” was tested, and the “binding against the reference” value (Survivin 1-142; reference: unmodified H3 peptide beads, sites T3) was “same”.

In the case of “histone H3 (from UniProt P68431) S10ph H3 peptide beads (T3 state not stated)”, the “binding against the reference” value (Survivin 1-142; reference: H3 peptide beads without S10ph, sites S10) is reported as “same”.

“human Survivin (wild type) (from UniProt O15392 1-142) (natural protein)” showed a Kd [1] of 121 µM and a dH [1] of -3.48 kcal/mol.

With AR[pT]KQTARKSTGGKA (peptide, UniProt P68431 2-16, looked up) [H3(1–15)T3ph peptide] the Kd (Survivin H80A mutant) was greater than 200 µM, the Kd (Survivin E63A mutant) was greater than 200 µM and the Kd (Survivin L64A mutant) was greater than 200 µM. For the same molecule, the Kd (Survivin W67A mutant) was greater than 200 µM.
